Assay results published in PMC8994517.

Target: Human Hsp90α (human) (UniProt P07900)
Test: cryo-EM structure

stoichiometry N (GR per Hsp90 dimer): 1
Substance: MBP (maltose-binding protein)-GR ligand-binding domain (LBD) (F602S) (520-777) (from UniProt P04150 520-777) (domain or fragment)
